{
  "source": "IntAct's records for PubMed 22677173",
  "parents": {"B1": {"name": "Spermatogenesis-defective protein 39 homolog (Homo sapiens), Q9H9C1 (parent)", "chain": "MNRTKGDEEEYWNSSKFKAFTFDDEDDELSQLKESKRAVNSLRDFVDDDDDDDLERVSWSGEPVGSISWSIRETAGNSGSTHEGREQLKSRNSFSSYAQLPKPTSTYSLSSFFRGRTRPGSFQSLSDALSDTPAKSYAPELGRPKGEYRDYSNDWSPSDTVRRLRKGKVCSLERFRSLQDKLQLLEEAVSMHDGNVITAVLIFLKRTLSKEILFRELEVRQVALRHLIHFLKEIGDQKLLLDLFRFLDRTEELALSHYREHLNIQDPDKRKEFLKTCVGLPFSAEDSAHIQDHYTLLERQIIIEANDRHLESAGQTEIFRKHPRKASILNMPLVTTLFYSCFYHYTEAEGTFSSPVNLKKTFKIPDKQYVLTALAARAKLRAWNDVDALFTTKNWLGYTKKRAPIGFHRVVEILHKNNAPVQILQEYVNLVEDVDTKLNLATKFKCHDVVIDTYRDLKDRQQLLAYRSKVDKGSAEEEKIDALLSSSQIRWKN", "partner": "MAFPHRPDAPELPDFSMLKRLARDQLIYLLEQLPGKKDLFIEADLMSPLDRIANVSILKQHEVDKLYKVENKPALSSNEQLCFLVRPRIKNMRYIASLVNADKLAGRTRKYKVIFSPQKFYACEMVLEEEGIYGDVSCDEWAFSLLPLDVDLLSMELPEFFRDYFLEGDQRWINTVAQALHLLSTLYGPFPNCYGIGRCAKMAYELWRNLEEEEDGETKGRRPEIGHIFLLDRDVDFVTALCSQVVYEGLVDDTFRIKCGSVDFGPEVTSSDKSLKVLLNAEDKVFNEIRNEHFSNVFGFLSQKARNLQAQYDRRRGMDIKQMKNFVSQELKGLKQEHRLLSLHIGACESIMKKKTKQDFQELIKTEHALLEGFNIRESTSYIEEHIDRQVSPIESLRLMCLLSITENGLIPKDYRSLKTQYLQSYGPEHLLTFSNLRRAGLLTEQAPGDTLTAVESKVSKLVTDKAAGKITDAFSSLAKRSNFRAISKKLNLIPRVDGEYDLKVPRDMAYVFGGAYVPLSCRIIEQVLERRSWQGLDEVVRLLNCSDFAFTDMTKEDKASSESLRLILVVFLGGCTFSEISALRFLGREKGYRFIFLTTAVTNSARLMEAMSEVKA"}},
  "data": [
    {"variants_of": "B1", "conditions": "with vp33b_human VPS33B", "values": [
      {"variant": "MNRTKGDEEEFWNSSKFKAFTFDDEDDELSQLKESKRAVNSLRDFVDDDDDDDLERVSWSGEPVGSISWSIRETAGNSGSTHEGREQLKSRNSFSSYAQLPKPTSTYSLSSFFRGRTRPGSFQSLSDALSDTPAKSYAPELGRPKGEYRDYSNDWSPSDTVRRLRKGKVCSLERFRSLQDKLQLLEEAVSMHDGNVITAVLIFLKRTLSKEILFRELEVRQVALRHLIHFLKEIGDQKLLLDLFRFLDRTEELALSHYREHLNIQDPDKRKEFLKTCVGLPFSAEDSAHIQDHYTLLERQIIIEANDRHLESAGQTEIFRKHPRKASILNMPLVTTLFYSCFYHYTEAEGTFSSPVNLKKTFKIPDKQYVLTALAARAKLRAWNDVDALFTTKNWLGYTKKRAPIGFHRVVEILHKNNAPVQILQEYVNLVEDVDTKLNLATKFKCHDVVIDTYRDLKDRQQLLAYRSKVDKGSAEEEKIDALLSSSQIRWKN", "note": "[Y11F]", "effect of a mutation on the interaction": "increasing interaction"}
    ]}
  ]
}
